{"source": "IntAct's records for PubMed 18996118", "parents": {"B1": {"name": "Capsid protein (Pseudomonas phage Pf3), P03623 (parent)", "chain": "MQSVITDVTGQLTAVQADITTIGGAIIVLAAVVLGIRWIKAQFF", "partner": "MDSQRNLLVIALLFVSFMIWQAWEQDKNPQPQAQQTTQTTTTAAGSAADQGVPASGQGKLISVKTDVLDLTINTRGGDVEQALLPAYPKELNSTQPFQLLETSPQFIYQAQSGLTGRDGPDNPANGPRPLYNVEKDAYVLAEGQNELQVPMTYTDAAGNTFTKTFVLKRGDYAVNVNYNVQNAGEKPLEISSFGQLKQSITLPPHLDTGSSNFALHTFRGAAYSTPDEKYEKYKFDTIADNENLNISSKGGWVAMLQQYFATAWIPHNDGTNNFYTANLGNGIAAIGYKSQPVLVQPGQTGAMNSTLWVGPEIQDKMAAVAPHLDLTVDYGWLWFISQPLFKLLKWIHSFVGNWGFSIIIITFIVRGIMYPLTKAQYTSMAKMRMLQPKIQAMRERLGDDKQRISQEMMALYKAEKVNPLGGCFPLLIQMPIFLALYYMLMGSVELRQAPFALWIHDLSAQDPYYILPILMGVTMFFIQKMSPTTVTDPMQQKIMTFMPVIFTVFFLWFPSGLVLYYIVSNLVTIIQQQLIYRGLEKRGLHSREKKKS"}, "B2": {"name": "Membrane protein insertase YidC (Escherichia coli (strain K12)), P25714 (parent)", "chain": "B1 partner", "partner": "B1 chain"}}}
{"variants_of": "B1", "settings": "with yidc_ecoli yidC, P25714"}
{"variant": "I27C", "effect of a mutation on the interaction": "increasing interaction"}
{"variants_of": "B1", "settings": "with yidc_ecoli yidC"}
{"variant": "V28C", "effect of a mutation on the interaction": "increasing interaction"}
{"variants_of": "B2", "settings": "with capsd_bppf3 VIII"}
{"variant": "M430C", "effect of a mutation on the interaction": "increasing interaction"}
{"variants_of": "B2", "settings": "with capsd_bppf3 VIII, P03623"}
{"variant": "S16C", "effect of a mutation on the interaction": "increasing interaction"}
{"variants_of": "B2", "settings": "with capsd_bppf3 VIII", "remark": "another data set of the same source"}
{"variant": "F17C", "effect of a mutation on the interaction": "increasing interaction"}
